The numbers were not newly measured in article PMC3214078, which cites them from elsewhere.

As a reminder, the Kd is the equilibrium constant for the complex coming apart.

The target in series [1] is Histone H3 peptide N-terminal tail (Homo sapiens) (UniProt P68431). As to the kind of experiment: ITC.
For series [2] the target is unchanged. As to the kind of experiment: tryptophan fluorescence.

Sequence of UHRF1 PHD (Q96T88 307-369): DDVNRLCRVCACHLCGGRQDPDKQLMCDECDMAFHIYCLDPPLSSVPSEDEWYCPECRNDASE

Take UHRF1 PHD (from UniProt Q96T88): the results for the Kd in series [1] and in series [2] were 930 nM and 3800 nM, respectively.
